Results from US7419669B2, “Peptide epitopes common to antigens of the same multigene family” (Institut Gustave Roussy, priority 2002, dated 2008).
Where no end group is shown, it is not given here.

Tests used:
HLA-A*0201 = target: T1, HLA-A*0201 (Homo sapiens, UniProt P04439, D140Y/D185E/D98H/E176V/E277Q/G131W/G231S/I119V/I121R/I166T/I218V/L300P/L318F/N151K/N90K/P208A/P217A/Q86G/Q94H/R138H/R169H/T345S); assay: Relative affinity (RA) of peptides for HLA-A*0201 on T2 cells, flow cytometry with BB7.2; type: binding; settings: low affinity = RA>5 and DC50<2 hours
T1 construct: prevent the expression at their surface of newly synthesized HLA-A*0201 molecules; endogenous in cells; host or cells: human T2 cells (TAP-deficient)
Method: (§1) The affinity of the selected peptides for HLA-A*0201 was defined by two parameters: the relative affinity (RA); which reflects the ability of the peptides to bind to HLA-A*0201, and the rate of dissociation of the HLA-A*0201/peptide complexes (DC50), which reflects their stability. The peptides with high affinity (RA<5 and DC50>2 hours) are potentially immunogenic, unlike the peptides with low affinity (RA>5 and DC50<2 hours).
Human T2 cells (FIRAT et al., Eur. J. Immunol., 29, 3112, 1999) (3×10^5 cells/ml), which are deficient in TAP transporters, are incubated at 37° C. for 16 hours with various concentrations (100 μM, 10 μM, 1 μM, 0.1 μM) of each test peptide in serum-free RPMI 1640 medium supplemented with 100 ng/ml of human β2-microglobulin. Next, they are washed twice and labeled with the monoclonal antibody BB7.2 (PARHAM et al., Hum. Immunol., 3, 4, 277-299, 1981) which is specific for the HLA-A*0201 molecule, and then with a goat anti-mouse Ig antibody coupled to fluorescein isothiocyanate (FITC).
The cells are then analyzed by flow cytometry. For each concentration of peptide, the specific HLA-A*0201 fluorescence is calculated as a percentage of the fluorescence obtained with 100 μM of a reference peptide (HIVpol 589; […] (SEQ ID No: 1)). The relative affinity (RA) is defined as the ratio of the concentration of each peptide that induces 20% of the fluorescence obtained with 100 μM of the reference peptide, to the concentration of the reference peptide that induces 20% of the fluorescence obtained with 100 μM of said reference peptide. The lower the relative affinity, the stronger the binding of the peptide to HLA-A*0201. The mean RA for each peptide is determined from at least three independent experiments. In all the experiments, 20% of the maximum fluorescence was obtained for 1 to 3 μM of the reference peptide.
The relative affinity (RA) of the selected variant peptides for HLA-A*0201 was measured as described in example 1.

[1] = target: T2, HLA-A*0201/peptide complexes (Homo sapiens, UniProt P04439, D140Y/D185E/D98H/E176V/E277Q/G131W/G231S/I119V/I121R/I166T/I218V/L300P/L318F/N151K/N90K/P208A/P217A/Q86G/Q94H/R138H/R169H/T345S); assay: Stability of peptide/HLA-A*0201 complexes on T2 cells (DC50); type: binding
T2 construct: prevent the expression at their surface of newly synthesized HLA-A*0201 molecules; endogenous in cells; host or cells: human T2 cells (TAP-deficient)
Method: as §1
T2 cells (10^6/ml) are incubated overnight at 37° C. with 100 μM of each test peptide in serum-free RPMI 1640 medium supplemented with 100 ng/ml of human β2-microglobulin. Next, they are washed four times in order to remove the free peptides, incubated with Brefeldin A (SIGMA; 10 μg/ml) for one hour in order to prevent the expression at their surface of newly synthesized HLA-A*0201 molecules, washed and incubated at 37° C. for 0, 2, 4, 6 or 8 hours. For each incubation time, the cells are then labeled, as indicated above, with the BB7.2 antibody, and analyzed by flow cytometry in order to evaluate the amount of peptide/HLA-A*0201 complex present at their surface. This amount is evaluated by means of the formula: (mean fluorescence of the T2 cells preincubated with the peptide−mean fluorescence of the T2 cells treated under similar conditions in the absence of peptide). […]

HHD transgenic mice = assay: Induction of specific CTLs in HHD transgenic mice by immunization with variant MAGE-A peptides; 51Cr cytotoxicity on peptide-loaded RMAS-HHD targets; type: in vivo
Method: The immunogenicity of the variant peptides p174Y1V10, p262L2 and p248V9 was evaluated by generation of CTLs on HHD transgenic mice (PASCOLO et al., J. Exp. Med., 185, 2043, 1997). These mice are β2m−/−, D^b−/− and express an HLA-A*0201 single chain made up of the α1 and α2 domains of HLA-A*0201 and the α3 and intracellular domains of D^b, linked via its N-terminal to the C-terminal of human β2-microglobulin, via a peptide of 15 amino acids.
The HHD mice are given a subcutaneous injection at the base of the tail with 100 μg of each variant peptide to be tested, emulsified in Freund's incomplete adjuvant, in the presence of 140 μg of a T-helper epitope derived from the HBV “core” antigen (128-140, sequence […]).
After 11 days, spleen cells taken from the mice (5×10^7 cells in 10 ml) are stimulated in vitro with the test peptide (10 μM). On the 6th day of culture, the populations which respond are tested in order to determine a specific cytotoxicity. The cells which respond are restimulated in vitro at one-week intervals with 2×10^7 irradiated (3000 rads) HHD spleen cells and 1 to 0.1 μM of peptide in the presence of 50 IU/ml of recombinant IL2 (Proleukin, Chiron Corp).
Cytotoxicity assays are carried out 6 days after the final stimulation.
RMAS-HHD cells are used as targets to study the cytotoxicity. The cells are obtained by transfection of murine RMAS cells with the HHD construct as described by PASCOLO et al. (J. Exp. Med., 185, 2043, 1997).
These target cells are labeled with 100 μCi of ^51Cr for 90 minutes, and then washed three times and plated out in round-bottomed 96-well plates (3×10^3 cells/well in 100 μl of RPMI 1640+3% of fetal calf serum). They are loaded with various concentrations of test peptide (variant, native peptide, or irrelevant control peptide), at 37° C. for 90 minutes.
Next, 100 μl of the effector cells (effector cell/target cell ratio=40/1) are added to the wells and the plates are incubated at 37° C. for 4 hours. After incubation, 100 μl of supernatant are collected and the radioactivity is measured in a γ-counter.
The percentage of specific lysis is calculated by means of the formula: [(experimental ^51Cr release−spontaneous ^51Cr release)/(maximum ^51Cr release−spontaneous ^51Cr release)]×100. In all the experiments, the spontaneous release is less than 20% of the maximum release induced with 3N HCl.

**Q.** With “YEFLWGPRA (listed as Homo sapiens) [p262]” as the sequence, how does the “affinity for HLA-A*0201 (in words)” value (HLA-A*0201) read?
**A.** low affinity

**Q.** What about the “DC50 (time required for loss of 50% of HLA-A*0201/peptide complexes)” value ([1]; T2 cells loaded with 100 μM peptide, 37° C., 0-8 hours) of the same sequence?
**A.** <2 h

**Q.** What about the “recognition of RMAS-HHD targets loaded with the native peptide by CTLs induced with the corresponding variant” value (HHD transgenic mice; native peptide loaded on targets) of the same sequence?
**A.** not

**Q.** How did the “stability of the complex formed with HLA-A*0201 (in words)” value [1] turn out when “YLGLSYDGLV (not fully specified) [p174Y1V10]” was run?
**A.** appears to be insufficient

**Q.** And the “CTL response generated by immunization with the variant peptide” value (HHD transgenic mice; HHD mice, 100 μg s.c. in Freund's incomplete adjuvant, RMAS-HHD targets, effector/target 40/1)?
**A.** not capable of generating a CTL response
